Appearance of beating EBs (myocardial differentiation-inducing effect of Noggin protein data for 1 substance are collected here from patent US20070134215A1.

For the experiment, the target named is BMP-2. Briefly: cell-based or functional assay.

Turning to “Recombinant Mouse Noggin/Fc Chimera protein (R&D Systems) (from UniProt P97466 28-232) (Fc fusion)”, the appearance of beating EBs (myocardial differentiation-inducing effect of Noggin protein at 150 ng/mL on ES cells, floating culture) was greater than 5 ng/mL.
